In paper PMC2914788, “Phage-Derived Fully Human Monoclonal Antibody Fragments to Human Vascular Endothelial Growth Factor-C Block Its Interaction with VEGF Receptor-2 and 3” (PLoS ONE, 2010):

Molecular target: T1, VC2.2.2 VH-myc (human)
T1 construct: as the VH of m13 (VC2.2.2), from Glu1 to Ser113; Chothia numbering; also called anti-VEGF-C VC2.2.2 VH; single VH-domain of VC2.2.2; source: E. coli (pHEN1), IPTG-induced, bacterial supernatant (ELISA); protein-A purified (SEC); not shown: myc, C-terminal, kept
Experiment: ELISA; bacterial supernatant of IPTG-induced cultures expressing VH-myc on ΔNΔC-VEGF-C or alpha-2-macroglobulin; detection with anti-myc and anti-mouse HRP or with protein-A-HRP
Conditions: one partner purified

binding result: binds
B1: ΔNΔC-VEGF-C (variant not stated for the experiment) (ligand, human, UniProt P49767 112-227, looked up)
chain: AHYNTEILKSIDNEWRKTQCMPREVCIDVGKEFGVATNTFFKPPCVSVYRCGGCCNSEGLQCMNTSTSYLSKTLFEITVPLSQGPKPVTISFANHTSCRCMSKLDVYRQVHSIIRR
notes: fully processed ΔNΔC form of human VEGF-C; also called fully processed human VEGF-C
